Test results: patent US9617572B2, “Methods of producing 7-carbon chemicals via aromatic compounds” (INVISTA North America S.á r.l., priority 2012, dated 2017)
Blank lines part the entries; values can stand above or below the molecule they belong to.

Tests used:
Type in all cases: biochemical
[1] = Thioesterase enzyme activity assay using pimeloyl-CoA as substrate, forming pimelate; conditions: 667 μM pimeloyl-CoA, 0.8 μM tesB gene product, pH 7.4, 37° C., 20 min, compared to empty vector control
Protocol: A sequence encoding an N-terminal His tag was added to the tesB gene from Escherichia coli that encodes a thioesterase (SEQ ID NO 1, see FIG. 7A), such that an N-terminal HIS tagged thioesterase could be produced. The modified tesB gene was cloned into a pET15b expression vector under control of the T7 promoter. The expression vector was transformed into a BL21[DE3] E. coli host. The resulting recombinant E. coli strain was cultivated at 37° C. in a 500 mL shake flask culture containing 50 mL Luria Broth (LB) media and antibiotic selection pressure, with shaking at 230 rpm. The culture was induced overnight at 17° C. using 0.5 mM IPTG.
The pellet from the induced shake flask culture was harvested via centrifugation. The pellet was resuspended and lysed in Y-per™ solution (ThermoScientific, Rockford, Ill.). The cell debris was separated from the supernatant via centrifugation. […]
The enzyme activity assay was performed in triplicate in a buffer composed of 50 mM phosphate buffer (pH=7.4), 0.1 mM Ellman's reagent, and 667 μM of pimeloyl-CoA (as substrate). […] The release of Coenzyme A was monitored by absorbance at 412 nm. The absorbance associated with the substrate only control, which contained boiled enzyme, was subtracted from the active enzyme assay absorbance and compared to the empty vector control.

[2] = Carboxylate reductase activity assay (N7-acetyl-7-aminoheptanoate to N7-acetyl-7-aminoheptanal); conditions: purified enzyme enhanced by sfp gene product, 2 mM N7-acetyl-7-aminoheptanoate, 1 mM ATP, 1 mM NADPH, pH 7.5, room temperature, 20 min, against empty vector control
Protocol: The activity of each of the N-terminal His-tagged carboxylate reductases of SEQ ID NOs: 3, 6, and 7 (see Example 4, and FIGS. 7B, 7E, and 7F) for converting N7-acetyl-7-aminoheptanoate to N7-acetyl-7-aminoheptanal was assayed in triplicate in a buffer composed of a final concentration of 50 mM HEPES buffer (pH=7.5), 2 mM N7-acetyl-7-aminoheptanoate, 10 mM MgCl2, 1 mM ATP, and 1 mM NADPH. The assays were initiated by adding purified carboxylate reductase and phosphopantetheine transferase or the empty vector control to the assay buffer containing the N7-acetyl-7-aminoheptanoate then incubated at room temperature for 20 min. The consumption of NADPH was monitored by absorbance at 340 nm.

[3] = Carboxylate reductase activity assay (pimelate to pimelate semialdehyde); conditions: purified enzyme enhanced by sfp gene product, 2 mM pimelate, 1 mM ATP, 1 mM NADPH, pH 7.5, room temperature, 20 min, against empty vector control
Protocol: A sequence encoding a HIS-tag was added to the genes from Segniliparus rugosus and Segniliparus rotundus that encode the carboxylate reductases of SEQ ID NOs: 4 and 7, respectively (see FIGS. 7C and 7F), such that N-terminal HIS tagged carboxylate reductases could be produced. Each of the modified genes was cloned into a pET Duet expression vector along with a sfp gene encoding a HIS-tagged phosphopantetheine transferase from Bacillus subtilis, both under the T7 promoter. Each expression vector was transformed into a BL21[DE3] E. coli host and the resulting recombinant E. coli strains were cultivated at 37° C. in a 250 mL shake flask culture containing 50 mL LB media and antibiotic selection pressure, with shaking at 230 rpm. Each culture was induced overnight at 37° C. using an auto-induction media.
The pellet from each induced shake flask culture was harvested via centrifugation. Each pellet was resuspended and lysed via sonication, and the cell debris was separated from the supernatant via centrifugation. […]
Enzyme activity assays (i.e., from pimelate to pimelate semialdehyde) were performed in triplicate in a buffer composed of a final concentration of 50 mM HEPES buffer (pH=7.5), 2 mM pimelate, 10 mM MgCl2, 1 mM ATP and 1 mM NADPH. […] The consumption of NADPH was monitored by absorbance at 340 nm.

acceptance of pimeloyl-CoA as substrate (release of Coenzyme A, absorbance at 412 nm) [1]: acceped pimeloyl-CoA as substrate
B1: tesB: Escherichia coli thioesterase encoded by tesB, GenBank Accession No. AAA24665.1 (protein, listed as Escherichia coli)
chain: MSQALKNLLTLLNLEKIEEGLFRGQSEDLGLRQVFGGQVVGQALYAAKETVPEERLVHSFHSYFLRPGDSKKPIIYDVETLRDGNSFSARRVAAIQNGKPIFYMTASFQAPEAGFEHQKTMPSAPAPDGLPSETQIAQSLAHLLPPVLKDKFICDRPLEVRPVEFHNPLKGHVAEPHRQVWIRANGSVPDDLRVHQYLLGYASDLNFLPVALQPHGIGFLEPGIQIATIDHSMWFHRPFNLNEWLLYSVESTSASSARGFVRGEFYTQDGVLVASTVQEGVMRNHN

B2: SEQ ID NO 6: Mycobacterium massiliense carboxylate reductase, Genbank Accession No. EIV11143.1 (protein)
chain: MTNETNPQQEQLSRRIESLRESDPQFRAAQPDPAVAEQVLRPGLHLSEAIAALMTGYAERPALGERARELVIDQDGRTTLRLLPRFDTTTYGELWSRTTSVAAAWHHDATHPVKAGDLVATLGFTSIDYTVLDLAIMILGGVAVPLQTSAPASQWTTILAEAEPNTLAVSIELIGAAMESVRATPSIKQVVVFDYTPEVDDQREAFEAASTQLAGTGIALETLDAVIARGAALPAAPLYAPSAGDDPLALLIYTSGSTGAPKGAMHSENIVRRWWIREDVMAGTENLPMIGLNFMPMSHIMGRGTLTSTLSTGGTGYFAASSDMSTLFEDMELIRPTALALVPRVCDMVFQRFQTEVDRRLASGDTASAEAVAAEVKADIRDNLFGGRVSAVMVGSAPLSEELGEFIESCFELNLTDGYGSTEAGMVFRDGIVQRPPVIDYKLVDVPELGYFSTDKPHPRGELLLKTDGMFLGYYKRPEVTASVFDADGFYMTGDIVAELAHDNIEIIDRRNNVLKLSQGEFVAVATLEAEYANSPVVHQIYVYGSSERSYLLAVVVPTPEAVAAAKGDAAALKTTIADSLQDIAKEIQLQSYEVPRDFIIEPQPFTQGNGLLTGIAKLARPNLKAHYGPRLEQMYAEIAEQQAAELRALHGVDPDKPALETVLKAAQALLGVSSAELAADAHFTDLGGDSLSALSFSDLLRDIFAVEVPVGVIVSAANDLGGVAKFVDEQRHSGGTRPTAETVHGAGHTEIRAADLTLDKFIDEATLHAAPSLPKAAGIPHTVLLTGSNGYLGHYLALEWLERLDKTDGKLIVIVRGKNAEAAYGRLEEAFDTGDTELLAHFRSLADKHLEVLAGDIGDPNLGLDADTWQRLADTVDVIVHPAALVNHVLPYNQLFGPNVVGTAEIIKLAITTKIKPVTYLSTVAVAAYVDPTTFDEESDIRLISAVRPIDDGYANGYGNAKWAGEVLLREAHDLCGLPVAVFRSDMILAHSRYTGQLNVPDQFTRLILSLIATGIAPGSFYQAQTTGERPLAHYDGLPGDFTAEAITTLGTQVPEGSEGFVTYDCVNPHADGISLDNFVDWLIEAGYPIARIDNYTEWFTRFDTAIRGLSEKQKQHSLLPLLHAFEQPSAAENHGVVPAKRFQHAVQAAGIGPVGQDGTTDIPHLSRRLIVKYAKDLEQLGLL
modifications: Mycobacterium massiliense
acceptance of N7-acetyl-7-aminoheptanoate as substrate (consumption of NADPH, absorbance at 340 nm) [2]: accepted N7-acetyl-7-aminoheptanoate as substrate

acceptance of pimelate as substrate (consumption of NADPH, absorbance at 340 nm) [3]: accepted pimelate as substrate
B3: SEQ ID NO 4: Segniliparus rugosus carboxylate reductase, Genbank Accession No. EFV11917.1 (protein, listed as Segniliparus rugosus)
chain: MGDGEERAKRFFQRIGELSATDPQFAAAAPDPAVVEAVSDPSLSFTRYLDTLMRGYAERPALAHRVGAGYETISYGELWARVGAIAAAWQADGLAPGDFVATVGFTSPDYVAVDLAAARSGLVSVPLQAGASLAQLVGILEETEPKVLAASASSLEGAVACALAAPSVQRLVVFDLRGPDASESAADERRGALADAEEQLARAGRAVVVETLADLAARGEALPEAPLFEPAEGEDPLALLIYTSGSTGAPKGAMYSQRLVSQLWGRTPVVPGMPNISLHYMPLSHSYGRAVLAGALSAGGTAHFTANSDLSTLFEDIALARPTFLALVPRVCEMLFQESQRGQDVAELRERVLGGRLLVAVCGSAPLSPEMRAFMEEVLGFPLLDGYGSTEALGVMRNGIIQRPPVIDYKLVDVPELGYRTTDKPYPRGELCIRSTSLISGYYKRPEITAEVFDAQGYYKTGDVMAEIAPDHLVYVDRSKNVLKLSQGEFVAVAKLEAAYGTSPYVKQIFVYGNSERSFLLAVVVPNAEVLGARDQEEAKPLIAASLQKIAKEAGLQSYEVPRDFLIETEPFTTQNGLLSEVGKLLRPKLKARYGEALEARYDEIAHGQADELRALRDGAGQRPVVETVVRAAVAISGSEGAEVGPEANFADLGGDSLSALSLANLLHDVFEVEVPVRIIIGPTASLAGIAKHIEAERAGASAPTAASVHGAGATRIRASELTLEKFLPEDLLAAAKGLPAADQVRTVLLTGANGWLGRFLALEQLERLARSGQDGGKLICLVRGKDAAAARRRIEETLGTDPALAARFAELAEGRLEVVPGDVGEPKFGLDDAAWDRLAEEVDVIVHPAALVNHVLPYHQLFGPNVVGTAEIIRLAITAKRKPVTYLSTVAVAAGVEPSSFEEDGDIRAVVPERPLGDGYANGYGNSKWAGEVLLREAHELVGLPVAVFRSDMILAHTRYTGQLNVPDQFTRLVLSLLATGIAPKSFYQQGAAGERQRAHYDGIPVDFTAEAITTLGAEPSWFDGGAGFRSFDVFNPHHDGVGLDEFVDWLIEAGHPISRIDDHKEWFARFETAVRGLPEAQRQHSLLPLLRAYSFPHPPVDGSVYPTGKFQGAVKAAQVGSDHDVPHLGKALIVKYADDLKALGLL
